Here are results for two molecules from paper PMC2849990 (Structure (London, England : 1993), 2008).

Experiment [1] addresses T1, human pyruvate dehydrogenase (E1p) component, heterotetramer alpha2beta2 (Homo sapiens, UniProt P08559+P11177).
T1 sequence (P08559 30-390): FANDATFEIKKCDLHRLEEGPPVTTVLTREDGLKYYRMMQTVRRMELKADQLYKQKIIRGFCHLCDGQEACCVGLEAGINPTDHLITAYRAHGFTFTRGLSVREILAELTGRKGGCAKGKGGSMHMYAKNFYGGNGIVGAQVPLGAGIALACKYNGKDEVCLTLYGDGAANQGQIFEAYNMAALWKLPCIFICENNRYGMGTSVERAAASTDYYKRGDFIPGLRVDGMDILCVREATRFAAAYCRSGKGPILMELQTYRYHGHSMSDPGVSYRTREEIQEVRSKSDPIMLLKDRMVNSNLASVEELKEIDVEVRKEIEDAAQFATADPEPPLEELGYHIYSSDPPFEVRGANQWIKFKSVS
T1 sequence (P11177 31-359): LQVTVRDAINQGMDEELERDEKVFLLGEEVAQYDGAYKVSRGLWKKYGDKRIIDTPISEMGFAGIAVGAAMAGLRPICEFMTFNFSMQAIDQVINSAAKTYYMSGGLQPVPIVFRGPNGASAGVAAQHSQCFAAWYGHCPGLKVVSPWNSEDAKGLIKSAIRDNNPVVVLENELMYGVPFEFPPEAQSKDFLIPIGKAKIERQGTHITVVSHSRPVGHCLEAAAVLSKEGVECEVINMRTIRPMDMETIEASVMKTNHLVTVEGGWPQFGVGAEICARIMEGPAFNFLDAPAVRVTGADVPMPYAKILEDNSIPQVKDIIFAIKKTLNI
The experiment in a line: tryptophan fluorescence quenching. The format is binding.

The target of experiment [2] is T2, human pyruvate dehydrogenase (E1p) component, heterotetramer alpha2beta2 (Homo sapiens, UniProt P08559+P11177, P08559:Y118F).
T2 sequence (P08559 30-390 Y118F): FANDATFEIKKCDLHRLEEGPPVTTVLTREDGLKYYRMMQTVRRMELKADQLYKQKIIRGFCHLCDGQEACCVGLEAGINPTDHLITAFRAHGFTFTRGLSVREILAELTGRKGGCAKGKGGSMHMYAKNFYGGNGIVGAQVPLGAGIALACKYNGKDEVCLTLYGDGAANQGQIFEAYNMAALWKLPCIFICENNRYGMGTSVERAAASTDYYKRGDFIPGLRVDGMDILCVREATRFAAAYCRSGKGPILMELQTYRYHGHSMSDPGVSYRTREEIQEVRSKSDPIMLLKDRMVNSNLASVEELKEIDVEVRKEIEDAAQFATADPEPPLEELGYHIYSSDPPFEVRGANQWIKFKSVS
T2 sequence (P11177 31-359): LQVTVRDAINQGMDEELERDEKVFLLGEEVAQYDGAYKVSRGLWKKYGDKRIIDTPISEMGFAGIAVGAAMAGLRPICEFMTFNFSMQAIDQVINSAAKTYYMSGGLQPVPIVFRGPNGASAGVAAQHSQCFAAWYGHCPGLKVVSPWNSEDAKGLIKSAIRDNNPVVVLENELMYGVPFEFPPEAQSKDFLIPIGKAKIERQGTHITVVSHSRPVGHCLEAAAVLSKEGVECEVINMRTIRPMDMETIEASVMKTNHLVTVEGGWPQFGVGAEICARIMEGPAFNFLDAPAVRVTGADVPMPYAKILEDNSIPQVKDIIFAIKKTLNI
The experiment in a line: tryptophan fluorescence quenching. The format is binding.

Experiment [3] addresses T3, E1p-α subunit of wild-type human E1p (human, UniProt P08559 30-390).
T3 sequence: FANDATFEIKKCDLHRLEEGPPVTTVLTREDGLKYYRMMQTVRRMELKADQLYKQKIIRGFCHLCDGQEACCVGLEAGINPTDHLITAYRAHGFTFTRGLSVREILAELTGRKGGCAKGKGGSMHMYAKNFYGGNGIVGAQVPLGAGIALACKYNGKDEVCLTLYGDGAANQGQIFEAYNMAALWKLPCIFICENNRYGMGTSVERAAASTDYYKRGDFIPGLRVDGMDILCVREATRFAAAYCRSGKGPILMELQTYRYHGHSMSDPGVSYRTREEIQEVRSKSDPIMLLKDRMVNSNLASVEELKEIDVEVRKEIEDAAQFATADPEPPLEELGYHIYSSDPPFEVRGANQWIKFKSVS
The experiment in a line: crystal structure.

Experiment [4] concerns the target T4, E1p-α subunit of S1-E1p (S271A-α, S203A-α) (human, UniProt P08559 30-390, S271A-α | S203A-α).
T4 sequence: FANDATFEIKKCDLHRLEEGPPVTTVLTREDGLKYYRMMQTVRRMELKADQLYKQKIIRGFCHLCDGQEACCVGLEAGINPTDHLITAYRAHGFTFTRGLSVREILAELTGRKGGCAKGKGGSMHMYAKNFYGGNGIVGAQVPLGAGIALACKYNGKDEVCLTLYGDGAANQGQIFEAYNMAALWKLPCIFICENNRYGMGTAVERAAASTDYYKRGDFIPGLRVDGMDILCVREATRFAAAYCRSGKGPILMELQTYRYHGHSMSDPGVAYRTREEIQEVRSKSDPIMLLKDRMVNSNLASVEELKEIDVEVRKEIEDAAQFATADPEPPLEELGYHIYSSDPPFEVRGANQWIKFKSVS
The experiment in a line: crystal structure.

Experiment [5] deals with T5, E1p-α subunit of Y89F-α mutant E1p (human, UniProt P08559 30-390, Y89F-α).
T5 sequence: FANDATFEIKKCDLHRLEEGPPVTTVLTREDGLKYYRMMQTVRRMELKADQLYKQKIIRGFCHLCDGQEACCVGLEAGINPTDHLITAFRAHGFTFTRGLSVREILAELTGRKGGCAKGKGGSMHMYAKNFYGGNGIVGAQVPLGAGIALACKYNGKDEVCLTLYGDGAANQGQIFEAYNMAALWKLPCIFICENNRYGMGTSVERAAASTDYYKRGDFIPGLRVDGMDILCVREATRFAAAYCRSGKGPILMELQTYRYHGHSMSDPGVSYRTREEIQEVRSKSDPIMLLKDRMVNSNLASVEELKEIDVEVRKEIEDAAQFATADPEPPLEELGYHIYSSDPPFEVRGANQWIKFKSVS
The experiment in a line: crystal structure.

For `Cc1ncc(C[n+]2csc(CCO[P@](=O)(O)OP(=O)(O)O)c2C)c(N)n1` [ThDP], the Kd turned out to be 0.11 ± 0.01 µM in experiment [1] and 50.2 ± 4.6 µM in experiment [2].

B1: E1p-β subunit of human E1p (natural protein)
chain: LQVTVRDAINQGMDEELERDEKVFLLGEEVAQYDGAYKVSRGLWKKYGDKRIIDTPISEMGFAGIAVGAAMAGLRPICEFMTFNFSMQAIDQVINSAAKTYYMSGGLQPVPIVFRGPNGASAGVAAQHSQCFAAWYGHCPGLKVVSPWNSEDAKGLIKSAIRDNNPVVVLENELMYGVPFEFPPEAQSKDFLIPIGKAKIERQGTHITVVSHSRPVGHCLEAAAVLSKEGVECEVINMRTIRPMDMETIEASVMKTNHLVTVEGGWPQFGVGAEICARIMEGPAFNFLDAPAVRVTGADVPMPYAKILEDNSIPQVKDIIFAIKKTLNI
For B1, the binding result in experiment [3], in experiment [4] and in experiment [5] was “binds” throughout.

In general, Kd refers to the concentration at which binding is half-saturated. Lower therefore signals tighter binding.
